Test results reported in patent US6538103B1, “Lysine binding fragments of angiostatin” (Bristol--Myers Squibb Company, priority 1998, dated 2003).

What was measured:
[1] = system: Bovine capillary endothelial (BCE) cells; assay: Endothelial cell migration assay (Boyden chamber, bFGF-stimulated); type: cell-based; details: bFGF 10 ng/ml, 4 hours migration; read-out: IC50 of inhibition of bFGF-induced BCE cell migration
Protocol: Bovine capillary endothelial (BCE) cells were harvested from bovine adrenal glands as previously described (33). BCE cells were maintained in DMEM in the presence of 10% bovine calf serum, 1% antibiotics, and 3 ng/ml of bFGF (PeproTech, Rockhill, N.J.). To evaluate endothelial cell migration, a Boyden Chamber-based assay was performed. First, the polycarbonate membranes with […] (Neuro Probe Inc., Cabin John, Md.) were coated with […] of collagen type I following manufacturer's instructions (Becton Dickinson, Bedford, Mass.). […] Each sample was tested in quadruplicate and a representative field in each well was counted at 10 x magnification to determine the number of migrated cells.
Fifty micrograms of the recombinant angiostatin in […] of serum-free DMEM was reduced by incubating with […] of 0.5 M dithiothreitol for 15 minutes at the room temperature. […] The homogeneity of the reduced and alkylated angiostatin was analyzed by SDS-PAGE before being examined for its inhibition on BCE cell migration. The endotoxin concentrations of both native and reduced/alkylated angiostatin were evaluated according to manufacturer's instructions (Associates of Cape Cod, Woods Hole, Mass.). […]

[2] = system: endothelial cell proliferation; details: previously described / reported; cited from earlier work

| Molecule | IC50 [1] [nM] | effect on endothelial cell proliferation (in words) [2] |
| --- | --- | --- |
| Angiostatin | ~50 |  |
| K4: recombinant plasminogen kringle region 4, expressed in Pichia pastoris (protein, human, recombinant plasminogen kringle region 4, expressed in Pichia pastoris) VQDCYHGDGQSYRGTSSTTTTGKKCQSWSSMTPHRHQKTPENYPNAGLTMNYCRNPDADKGPWCFTTDPSVRWEYCNLKKCSGT | 500 | negligible effect on endothelial cell proliferation |
